Laboratory results as given in patent US20050074855A1 (Regeneron, published 2005).

Biological target: T1, human IL-6 (human, UniProt P05231 30-212)
T1 construct: Soluble analyte injected at 1.25, 2.5 and 5 nM in the BIAcore assay; also called hIL-6
Assay: SPR (BIAcore 2000), fusion captured by anti-human Fc, hIL-6 injected
Procedure: Affinity Measurements. The affinity of the various scFv-scFv-Fc fusion proteins for human IL-6 was measured using a BIAcore 2000. […] Kinetic analysis using BIAevaluation software was performed to obtain the association and dissociation rate constants.

T1 sequence (P05231 30-212 limits assumed): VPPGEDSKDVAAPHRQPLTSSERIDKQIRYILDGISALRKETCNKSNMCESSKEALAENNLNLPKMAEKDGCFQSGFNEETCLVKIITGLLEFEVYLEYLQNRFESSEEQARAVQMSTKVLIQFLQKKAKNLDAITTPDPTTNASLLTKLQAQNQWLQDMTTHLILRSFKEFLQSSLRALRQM

| Kd | Binder |
| --- | --- |
| 0.296 nM | 8F10.8F10 ScFv-ScFv-Fc (Fc fusion, Monospecific tandem scFv-Fc; not shown: Fc domain of human IgG1) QVQLQQSGAELAKPGASVKMSCKASGYTFTTYWMHWIKQRPGQGLEWIGYINPSTGYSEFNQKFNDKATLTADRSSSTAYMQLNSLTSEDSAVYYCARDAYYGNYEDYWGQGTTLTVSSAGGGGSGGGGSGGGGSSIVMTQTPKFLLVSAGDRVTITCKASQSVSYDVAWYQQKPGQSPKLLIYYESNRYSGVPDRFTGSGNGTDFTFTISTVQAEDLAVYFCQQVYTSPYTFGGGTKLEIKRGGGGSGGGGSGGGGSQVQLQQSGAELAKPGASVKMSCKASGYTFTTYWMHWIKQRPGQGLEWIGYINPSTGYSEFNQKFNDKATLTADRSSSTAYMQLNSLTSEDSAVYYCARDAYYGNYEDYWGQGTTLTVSSAGGGGSGGGGSGGGGSSIVMTQTPKFLLVSAGDRVTITCKASQSVSYDVAWYQQKPGQSPKLLIYYESNRYSGVPDRFTGSGNGTDFTFTISTVQAEDLAVYFCQQVYTSPYTFGGGTKLEIKR |
| 0.43 nM | 8F10 ScFv-Fc (Fc fusion, how it was built is not described; not shown: Fc domain of human IgG1) QVQLQQSGAELAKPGASVKMSCKASGYTFTTYWMHWIKQRPGQGLEWIGYINPSTGYSEFNQKFNDKATLTADRSSSTAYMQLNSLTSEDSAVYYCARDAYYGNYEDYWGQGTTLTVSSAGGGGSGGGGSGGGGSSIVMTQTPKFLLVSAGDRVTITCKASQSVSYDVAWYQQKPGQSPKLLIYYESNRYSGVPDRFTGSGNGTDFTFTISTVQAEDLAVYFCQQVYTSPYTFGGGTKLEIKR |
